{
  "source": "paper PMC4698670",
  "about": "“Fortilin potentiates the peroxidase activity of Peroxiredoxin-1 and protects against alcohol-induced liver damage in mice” (Scientific Reports, 2016)",
  "biological_target": "T1, recombinant human PRX1 (Sigma-Aldrich) (human, UniProt Q06830 1-199)",
  "T1 construct": "recombinant human peroxiredoxin-1, bought; construct not described; also called recombinant PRX1; source: bought: Sigma-Aldrich",
  "T1 sequence (looked up)": "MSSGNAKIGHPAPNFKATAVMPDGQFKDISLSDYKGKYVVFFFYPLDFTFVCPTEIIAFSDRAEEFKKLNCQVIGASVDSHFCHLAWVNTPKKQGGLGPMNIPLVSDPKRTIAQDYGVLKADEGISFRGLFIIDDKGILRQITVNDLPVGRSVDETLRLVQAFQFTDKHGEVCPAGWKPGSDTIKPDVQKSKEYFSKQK",
  "assay": "BLI; BLItz; biotinylated fortilin immobilized on streptavidin biosensors (1 μg/mL, 25 mM Tris, 150 mM NaCl, 0.1% Tween-20), then PBS; recombinant PRX1 in solution, 180 s association, 300 s dissociation in PBS; three independent experiments",
  "details": "both partners purified",
  "data": [
    {"binder": "recombinant human fortilin tagged with the Strep-tag II (natural protein, UniProt P13693 1-172, looked up, biotin (biotinylated for the biolayer interferometry), human fortilin (TCTP) cDNA in the pESG-IBA5 vector; Biotinylated only for the biolayer interferometry; used without biotin in the activity and phosphorylation assays; also called recombinant fortilin; wild-type fortilin; source: 293T cells stably expressing it, purified (Strep-Tactin-Superflow resin)) MIIYRDLISHDEMFSDIYKIREIADGLCLEVEGKMVSRTEGNIDDSLIGGNASAEGPEGEGTESTVITGVDIVMNHHLQETSFTKEAYKKYIKDYMKSIKGKLEEQRPERVKPFMTGAAEQIKHILANFKNYQFFIGENMNPDGMVALLDYREDGVTPYMIFFKDGLEMEKC", "values": [
      {"measurement": "Kd", "result": 125, "unit": "nM"}
    ]}
  ]
}
